B1: LEFTY1: left-right determination factor 1, secreted TGF-β superfamily protein; generic LEFTY may mean LEFTY1 or LEFTY2 (protein, UniProt O75610 77-366, looked up)
Left-right determination …: RFSQSFREVAGRFLALEASTHLLVFGMEQRLPPNSELVQAVLRLFQEPVPKAALHRHGRLSPRSARARVTVEWLRVRDDGSNRTSLIDSRLVSVHESGWKAFDVTEAVNFWQQLSRPRQPLLLQVSVQREHLGPLASGAHKLVRFASQGAPAGLGEPQLELHTLDLGDYGAQGDCDPEAPMTEGTRCCRQEMYIDLQGMKWAENWVLEPPGFLAYECVGTCRQPPEALAFKWPFLGPRQCIASETDSLPMIVSIKEGGRTRPQVVSLPNMRVQKCSCASDGALVPRRLQP
B2: BMP7: bone morphogenetic protein 7, BMPR2 ligand (protein)
chain: STGSKQRSQNRSKTPKNQEALRMANVAENSSSDQRQACKKHELYVSFRDLGWQDWIIAPEGYAAYYCEGECAFPLNSYMNATNHAIVQTLVHFINPETVPKPCCAPTQLNAISVLYFDDSSNVILKKYRNMVVRACGCH

Columns and labels:
pSMAD2 = assay: Immunofluorescent pSMAD2 positive cells in mammary glands exposed to ligand-secreting fibroblasts; type: in vivo, mouse; conditions: basal and luminal compartments
Experimental: (§1) FIGS. 4A-4I. LEFTY1 inhibits the phosphorylation of SMAD2 and SMAD5 in basal mammary epithelial cells. FIGS. 4A-4C show exemplary quantification of pSMAD2 and pSMAD5 positive cells within the luminal and basal cells of mammary glands isolated from mice that were injected with control or LEFTY1-secreting L1 fibroblasts. Immunofluorescent detection of pSMAD2 or pSMAD5 proteins was used to visualize positive cells. KRT8 and SMA were used to determine the luminal or basal cells, respectively. […] Immunofluorescent detection of pSMAD2 or pSMAD5 proteins was used to visualize positive cells. KRT8 and SMA were used to determine the luminal or basal cells, respectively. FIGS. 4H-4I show representative images of the quantified sections for pSMAD2 and pSMAD5 analysis (Magnification, 400×). Data are represented as median±S.D. Statistical analysis, Student's T-test, n.s. non-significant; ****p<0.0001.

pSMAD5 = assay: Immunofluorescent pSMAD5 positive cells in mammary glands exposed to ligand-secreting fibroblasts; type: in vivo, mouse
Experimental: as §1
FIGS. 5A-5H. LEFTY1 inhibits pSMAD2 and pSMAD5 in the basal mammary epithelial cells. […] KRT8 was used to stain the luminal cells and SMA for basal cells (Magnification 400×). […] Gapdh was used as a housekeeping gene. […] Ten different fields were counted per condition (n=3). Data are represented as median±S.D. Statistical analysis, (a and b) Student's T-test, * p<0.05; (h) One-way ANOVA with Dunnet's adjustment, ****p<0.0001.

pSMAD5 activation = assay: pGL3 BRE-luciferase reporter in 3T3-L1 fibroblasts; type: cell-based; conditions: 16 hours
Experimental: FIGS. 7A-7E. LEFTY1 interaction with BMPR2 inhibits the phosphorylation of SMAD5. […] Ten different fields were counted per condition (n=3). […] 48 hours after transfection, cells were washed and incubated with different concentrations of BMP7 (from 0-800 ng/ml) for 16 hours prior to collection of the cells. […] 48 hours after transfection, cells were washed and incubated with different concentrations of LEFTY1 (from 0-200 ng/ml) for 16 hours prior to collection of the cells. […] 48 hours after transfection, cells were washed and incubated with different concentrations of BMP7 and LEFTY1 at the indicated concentrations for 16 hours prior to collection of the cells. Data are represented as median±S.D. Statistical analysis, one-way ANOVA with Dunnet's adjustment, *p<0.05; **p<0.01; ****p<0.0001.
FIGS. 7F-7I: pSMAD5 activation in the presence of LEFTY1, BMP2 and BMP4. […] 48 hours after transfection, cells were washed and incubated with different concentrations of BMP2 (from 0-800 ng/ml) for 16 hours prior to collection of the cells. […] 48 hours after transfection, cells were washed and incubated with different concentrations of BMP2 and LEFTY1 for 16 hours prior to collection of the cells. FIG. 7H and FIG. 7I show 3T3-L1 fibroblasts transfected with pGL3 BRE-luciferase plasmid. […]
We also evaluated whether LEFTY1 could inhibit pSMAD5 activation induced by other BMPs. […]

mammary gland = assay: Mammary branching after injection of LEFTY1- or BMP7-secreting L1 fibroblasts into mammary fat-pad; type: in vivo, mouse; conditions: secreted ligand from transplanted fibroblasts; whole mount staining
Experimental: FIGS. 2A-2F. Effect of LEFTY1 and BMP7 in mammary glands. […] Ducts and terminal end buds (TEB) were analyzed for BMP7 positive cells. SMA and DAPI were used to identify basal cells and for nuclear counterstain, respectively (Magnification 200×). […] Ducts and terminal end buds (TEB) were analyzed for LEFTY1 positive cells. SMA and DAPI were used to identify basal cells and for nuclear counterstain, respectively (Magnification 200×). […] Four to seven images per mouse were analyzed for quantification. […] Four to seven images per mice were analyzed for quantification. […] Data are represented as median±S.E.M. Statistical analysis, Student's T-test, *p<0.05; ***p<0.001.
FIGS. 3A-3C. Effects of LEFTY1 and BMP7 on the morphology of the mouse mammary gland. […] Four to seven images per mouse were analyzed for quantification. […] Four to seven images per mouse were analyzed for quantification. Data are represented as median±S.E.M. Statistical analysis, Student's T-test, *p<0.05; **p<0.01; ****p<0.0001.
We first developed a system where transplantation of engineered non-autologous mammary fibroblast cells secreted particular ligands (FIG. 2C). […] These opposing results were unexpected, since both LEFTY1 and BMP7 have been described to have similar suppressive roles on NODAL/SMAD2/3 signaling (Chen et al., Current biology: CB 14, 618-624 (2004) and Yeo et al., Molecular cell 7, 949-957 (2001)).

Molecule	pSMAD2 expression (pSMAD2)	pSMAD5 in basal cells (pSMAD5)	pSMAD5 protein levels in luminal cells (pSMAD5)	inhibition of BMP7-mediated pSMAD5 activation (pSMAD5 activation)	inhibition of pSMAD5 activation induced by BMP2 or BMP4 (pSMAD5 activation)	extent and number of mammary tree branches (mammary gland)
B1	significant decrease	significant decrease	significant decrease	inhibit BMP7-mediated pSMAD5 activation in a dose-dependent fashion	less of an inhibitory effect	significant localized increase
B2	no effect	significant increase	no effect			decreased

Reference: patent US12012599B2, “Compositions and methods for modulating left-right differentiation factor (LEFTY) and bone morphogenic factor (BMP)” (CZ Biohub SF LLC, priority 2018, dated 2024)
